In the supplement of paper PMC10567573:

B1: FAM50A (parent)
chain: HIFPASRWEPYDPEKKWDKYTIR

Variants of: B1
Assay: protein stability index of a GFP-peptide fusion (GPS, HEK-293T) (PSI 1-6); higher = more stable
Conditions: c terminus: native
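Also: lentivirally expressed fusions sorted by FACS into six bins by GFP to DsRed ratio, PSI derived from sequencing read proportions per bin multiplied by bin number.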

Protein stability index of substitutions, site by site:
D12: E 2.15 | H 2.98 | A 2.5 | K 2.73 | W 1.8 | L 1.83 | I 1.79 | F 2.48 | N 2.08 | Q 2.19 | P 1.69 | S 2.49 | G 2.16
Y20: R 2.81 | N 2.73 | P 2.93 | C 1.77 | L 2.26 | A 1.86 | K 2.6 | S 2.74 | F 2.67 | M 2.2 | H 2.74 | Q 2.48 | D 3.29 | W 2.96 | I 1.49 | E 2.02 | T 3.05 | V 2.28
S6: A 2.66 | L 1.84 | Q 3.79 | C 1.72 | G 2.98 | N 2.86 | W 2 | M 2.48 | V 1.95 | E 3.04
F3: Y 2.1 | D 3.92 | N 3.25 | M 1.74 | A 3.12 | I 2.57 | L 2.63 | T 3 | P 2.62 | S 2.79
H1: Y 1.69 | C 2.4 | M 1.22 | P 2.83 | G 3.23 | R 2.34 | A 1.75 | V 1.45 | S 2.04 | W 1.46 | I 1.58 | E 2.52
E14: S 2.65 | L 2.1 | V 1.59 | N 2.42 | Q 2.04 | W 1.65 | R 2.49 | H 1.76 | Y 2.68 | F 1.55 | T 1.96 | D 2.02 | K 2.27 | A 2.66
D18: G 2.28 | E 3.2 | S 1.45 | F 1.55 | A 1.96 | I 2.48 | N 4.48 | H 2.58 | R 2.01 | K 3.01 | V 2.17 | P 2.99 | M 1.92 | Y 2.39 | T 2.37 | L 2.08 | C 2.61
E9: H 1.88 | A 2.24 | L 2.42 | P 2.57 | N 2.05 | T 1.87 | Y 1.51 | G 1.72 | R 2.43 | V 2.17 | Q 2.2 | K 1.68 | M 1.77 | S 2.76 | I 3.95
K16: R 2.59 | I 1.54 | E 2.79 | A 1.76 | H 1.72 | F 3.28 | V 1.97 | M 1.71 | G 1.77 | S 2.6 | D 1.78 | C 1.96 | W 1.92 | T 1.81 | Y 1.66
K19: G 2.84 | N 2.52 | W 3.02 | H 2.03 | A 2.18 | R 2.6 | M 1.9 | T 3.02 | C 1.81 | L 2.04 | E 2.53 | Y 1.35 | I 2.22 | S 1.89 | Q 2.63 | D 2.24
R23: Y 2.1 | E 2.04 | M 2.1 | N 2.27 | K 2.4 | G 2.59 | L 2.54 | I 2.21 | S 2.1 | Q 2.12 | P 3.67 | C 2.08 | A 3.17 | D 2.58 | W 1.72 | T 1.87 | H 2.2
P4: E 2.45 | M 1.59 | C 1.69 | N 2.71 | W 1.64 | R 2.13 | T 3.16 | D 2.22 | H 2.36 | S 1.97 | K 2 | Q 1.77
K15: P 1.99 | W 3 | F 2.2 | H 1.45 | T 2.33 | G 2.27 | Y 2.12 | D 2.05 | A 2.23 | M 2.16 | Q 2.13 | C 3.43 | I 1.9 | L 1.57 | S 2.67
W17: F 2.9 | M 2.61 | D 2.51 | E 3.48 | C 3.46 | L 2.37 | V 2.62 | P 2.56 | N 2.54 | R 2.68 | I 2.64 | A 2.45 | S 3 | G 2.43 | K 2.57 | T 2.25 | Y 2.29 | H 2.42
R7: C 1.85 | E 3.47 | K 2.1 | D 3.29 | H 2 | S 3.31 | M 2.6 | A 2.34 | W 1.22 | Y 1.65 | V 2.48 | P 2.01 | G 2.5 | Q 2.47 | N 2.38 | L 1.21
Y11: M 2.65 | Q 2.28 | N 2.67 | A 2.51 | G 3.04 | C 2.48 | K 3.01 | L 2.27 | R 4.26 | E 2.37 | I 2.51 | P 2.71 | T 2.42 | W 2.11 | F 2.18 | H 2.35
I22: M 2.05 | E 2.25 | Y 2.98 | S 2.72 | C 2.15 | T 2.62 | F 2.92 | A 2.03 | V 2.75 | K 3.3 | P 3.88 | H 2.19
T21: N 2.54 | G 2.38 | W 2.86 | Q 2.18 | M 2.08 | H 2.2 | Y 2.71 | I 1.74 | C 1.97 | L 2.32 | E 2.7 | F 2.06
P13: Y 2.13 | G 2.03 | S 2.1 | C 1.48 | F 2.8 | K 2.25 | M 2.53 | N 2.05 | V 2.72 | I 3.04 | D 1.75 | T 2.3 | L 1.58 | E 1.86 | H 2.19
P10: R 2.7 | C 3 | Q 2.12 | I 1.24 | H 2.88 | N 2.02 | W 1.58 | S 2.91 | F 2.04 | Y 2.89 | D 2.23 | T 2.3 | K 2.24 | E 2.32 | G 2.45 | A 1.71
W8: E 3.6 | G 3.72 | M 3.42 | F 2.17 | V 3.62 | R 3.54 | D 3.54 | I 3.38 | P 3.92 | Y 2.5 | N 3.88 | C 3.11 | Q 4.11 | A 3.29 | H 3.46
I2: T 2.38 | N 3.19 | G 3.14 | K 2.48 | E 2.95 | W 2.16 | A 2.71 | H 2.41 | R 3.2 | F 2.33 | P 2.15 | V 2.88 | L 3.1 | C 2.74 | M 2.35
A5: D 2.04 | G 2.14 | P 3.42 | R 1.9 | V 1.77 | H 1.8 | S 3.2 | I 2.18 | L 1.58 | T 2.06 | C 1.73 | K 2.31 | Q 3.48 | Y 1.5 | M 1.54
